Columns and labels:
[1] = test system: T1, O=C[C@H](O)[C@@H](O)[C@@H](O)[C@H](O)CO; test: standard pyruvate kinase/lactate dehydrogenase-coupled GALK assay; type: biochemical; settings: other: substrates of purified human GALK
T1 construct: made in house; host or cells: Escherichia coli HMS174 (DE3), plasmid pET15b
From the text: As the percentage of substrate conversion can have significant impact on the accuracy of IC50 determination, the preferred approach is to determine reaction rates at initial velocity (i.e., zero substrate conversion). […] In this assay, the amount of galactose present in the reaction is kept in excess, whereas ATP consumed by the galactokinase reaction is recycled by the pyruvate kinase reaction. As a result, the reaction rates calculated will be close to initial velocity.
As the percentage of substrate conversion can have significant impact on the accuracy of IC50 determination, the preferred approach is to determine reaction rates at initial velocity (i.e., zero substrate conversion). […] The dose response of the selected compounds was analyzed using the standard pyruvate kinase/lactate dehydrogenase-Coupled assay. In this assay, the amount of galactose present in the reaction was kept in excess, whereas ATP consumed by the galactokinase reaction was recycled by the pyruvate kinase reaction. As a result, the reaction rates calculated were close to initial velocity.

[2] = test system: Nc1ncnc2c1ncn2[C@@H]1O[C@H](COP(=O)(O)OP(=O)(O)OP(=O)(O)O)[C@@H](O)[C@H]1O; test: purified protein, by the assay type; settings: other: substrates of purified human GALK

human GALK (Homo sapiens)
Km [1]: 210 µM
Km [2]: 42 µM

Reference: patent US8357701B2, “Galactokinase inhibitors” (University of Miami, priority 2007, dated 2013)
